The results in this text go back to patent publication US20210261648A1 (published 2021).

Assay in all cases: SPR, captured antibody, FcgR analyte
On the technique in general: SPR reads the build-up and loss of mass on a sensor chip optically.

The target in assay [1] is T1, FcγRIa extracellular domain with C-terminal His tag (human, UniProt P12314 16-292).
T1 construct: also called FcgRIa
Method: (§1) Relative binding activities were calculated for the results of analyzing interactions with the respective FcγRs according to the following method.

For assay [2], the target named is T2, FcγRIIa type H extracellular domain with C-terminal His tag (human, UniProt P12318 34-217).
T2 construct: extracellular domain; also called FcgRIIaH; FcγRIIa H
T2 sequence (looked up): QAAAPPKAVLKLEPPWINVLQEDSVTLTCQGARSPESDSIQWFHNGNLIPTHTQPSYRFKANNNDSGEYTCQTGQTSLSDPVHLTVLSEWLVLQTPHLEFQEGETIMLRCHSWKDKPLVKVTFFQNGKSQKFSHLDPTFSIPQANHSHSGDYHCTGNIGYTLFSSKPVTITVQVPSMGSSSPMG
Method: as §1

The target in assay [3] is T3, FcγRIIb extracellular domain with C-terminal His tag (human, UniProt P31994 43-217).
T3 construct: extracellular domain; also called FcgRIIb
T3 sequence (looked up): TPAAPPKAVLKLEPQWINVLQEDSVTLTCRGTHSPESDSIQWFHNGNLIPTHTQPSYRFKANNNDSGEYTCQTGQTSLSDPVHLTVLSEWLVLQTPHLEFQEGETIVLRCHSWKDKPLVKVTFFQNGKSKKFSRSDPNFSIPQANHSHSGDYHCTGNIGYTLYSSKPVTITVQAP
Method: as §1

T1 sequence (P12314 16-292): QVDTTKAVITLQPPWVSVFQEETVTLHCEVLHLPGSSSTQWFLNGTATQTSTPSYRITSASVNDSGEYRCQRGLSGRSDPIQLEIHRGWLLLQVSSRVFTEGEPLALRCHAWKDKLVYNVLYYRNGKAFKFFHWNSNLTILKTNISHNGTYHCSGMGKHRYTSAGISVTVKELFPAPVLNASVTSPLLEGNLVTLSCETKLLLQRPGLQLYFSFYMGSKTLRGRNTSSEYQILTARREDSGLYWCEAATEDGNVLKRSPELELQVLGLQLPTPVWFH

B1: IL6R-BP149/IL6R-L (antibody, human IgG1, kappa)
heavy: QVQLQESGPGLVKPSETLSLTCAVSGHSISHDHAWSWVRQPPGEGLEWIGFISYSGITNYNPSLQGRVTISRDNSKNTLYLQMNSLRAEDTAVYYCARSLARTTAMDYWGEGTLVTVSSASTKGPSVFPLAPSSKSTSGGTAALGCLVKDYFPEPVTVSWNSGALTSGVHTFPAVLQSSGLYSLSSVVTVPSSSLGTQTYICNVNHKPSNTKVDKKVEPKSCDKTHTCPPCPAPDYLGDDSVFLFPPKPKDTLMISRTPEVTCVVVDVSHEDPEVKFNWYVDGVEVHNAKTKPREEQDNSTYRVVSVLTVLHQDWLNGKEYKCKVSNAALPKPIEKTISKAKGQPREPQVYTLPPSRDELTKNQVSLTCLVKGFYPSDIAVEWESNGQPENNYKTTPPVLDSDGSFFLYSKLTVDKSRWQQGNVFSCSVMHEALHNHYTQESLSLSP
light: not shown
For B1, the relative binding activity in assay [1] is 29 relative (IL6R-BF648/IL6R-L = 100); in assay [2], 401 relative (IL6R-BF648/IL6R-L = 100); in assay [3] it was 173 relative (IL6R-BF648/IL6R-L = 100).

B2: IL6R-BP150/IL6R-L (antibody, human IgG1, kappa)
heavy: QVQLQESGPGLVKPSETLSLTCAVSGHSISHDHAWSWVRQPPGEGLEWIGFISYSGITNYNPSLQGRVTISRDNSKNTLYLQMNSLRAEDTAVYYCARSLARTTAMDYWGEGTLVTVSSASTKGPSVFPLAPSSKSTSGGTAALGCLVKDYFPEPVTVSWNSGALTSGVHTFPAVLQSSGLYSLSSVVTVPSSSLGTQTYICNVNHKPSNTKVDKKVEPKSCDKTHTCPPCPAPEYLGDDSVFLFPPKPKDTLMISRTPEVTCVVVDVSHEDPEVKFNWYVDGVEVHNAKTKPREEQYNSTYRVVSVLTVLHQDWLNGKEYKCKVSNAALPRPIEKTISKAKGQPREPQVYTLPPSRDELTKNQVSLTCLVKGFYPSDIAVEWESNGQPENNYKTTPPVLDSDGSFFLYSKLTVDKSRWQQGNVFSCSVMHEALHNHYTQESLSLSP
light: not shown
In the case of B2, the relative binding activity in assay [1] is 30 relative (IL6R-BF648/IL6R-L = 100); in assay [2], 770 relative (IL6R-BF648/IL6R-L = 100); in assay [3] it was 183 relative (IL6R-BF648/IL6R-L = 100).

B3: IL6R-BP177/IL6R-L (antibody, human IgG1, kappa)
heavy: QVQLQESGPGLVKPSETLSLTCAVSGHSISHDHAWSWVRQPPGEGLEWIGFISYSGITNYNPSLQGRVTISRDNSKNTLYLQMNSLRAEDTAVYYCARSLARTTAMDYWGEGTLVTVSSASTKGPSVFPLAPSSKSTSGGTAALGCLVKDYFPEPVTVSWNSGALTSGVHTFPAVLQSSGLYSLSSVVTVPSSSLGTQTYICNVNHKPSNTKVDKKVEPKSCDKTHTCPPCPAPDYLGDDSVFLFPPKPKDTLMISRTPEVTCVVVDVSHEDGEVKFNWYVDGVEVHNAKTKPREEQYNSTYRVVSVLTVLHQDWLNGKEYKCKVSNDALPKPIEKTISKAKGQPREPQVYTLPPSRDELTKNQVSLTCLVKGFYPSDIAVEWESNGQPENNYKTTPPVLDSDGSFFLYSKLTVDKSRWQQGNVFSCSVMHEALHNHYTQESLSLSP
light: not shown
Take B3: the relative binding activity in assay [1] was 57 relative (IL6R-BF648/IL6R-L = 100); in assay [2] it was 409 relative (IL6R-BF648/IL6R-L = 100); in assay [3] it was 177 relative (IL6R-BF648/IL6R-L = 100).

B4: IL6R-BP183/IL6R-L (antibody, human IgG1, kappa)
heavy: QVQLQESGPGLVKPSETLSLTCAVSGHSISHDHAWSWVRQPPGEGLEWIGFISYSGITNYNPSLQGRVTISRDNSKNTLYLQMNSLRAEDTAVYYCARSLARTTAMDYWGEGTLVTVSSASTKGPSVFPLAPSSKSTSGGTAALGCLVKDYFPEPVTVSWNSGALTSGVHTFPAVLQSSGLYSLSSVVTVPSSSLGTQTYICNVNHKPSNTKVDKKVEPKSCDKTHTCPPCPAPDYLGGDSVFLFPPKPKDTLMISRTPEVTCVVVDVSHEDGEVKFNWYVDGVEVHNAKTKPREEQYNSTYRVVSVLTVLHQDWLNGKEYKCKVSNAALPKPIEKTISKAKGQPREPQVYTLPPSRDELTKNQVSLTCLVKGFYPSDIAVEWESNGQPENNYKTTPPVLDSDGSFFLYSKLTVDKSRWQQGNVFSCSVMHEALHNHYTQESLSLSP
light: not shown
B4: the relative binding activity is 83 relative (IL6R-BF648/IL6R-L = 100) in assay [1], 191 relative (IL6R-BF648/IL6R-L = 100) in assay [2] and 164 relative (IL6R-BF648/IL6R-L = 100) in assay [3].

B5: IL6R-BP152/IL6R-L (antibody, human IgG1, kappa)
heavy: QVQLQESGPGLVKPSETLSLTCAVSGHSISHDHAWSWVRQPPGEGLEWIGFISYSGITNYNPSLQGRVTISRDNSKNTLYLQMNSLRAEDTAVYYCARSLARTTAMDYWGEGTLVTVSSASTKGPSVFPLAPSSKSTSGGTAALGCLVKDYFPEPVTVSWNSGALTSGVHTFPAVLQSSGLYSLSSVVTVPSSSLGTQTYICNVNHKPSNTKVDKKVEPKSCDKTHTCPPCPAPDYLGDDSVFLFPPKPKDTLMISRTPEVTCVVVDVSHEDPEVKFNWYVDGVEVHNAKTKPREEQDNSTYRVVSVLTVLHQDWLNGKEYKCKVSNAALPRPIEKTISKAKGQPREPQVYTLPPSRDELTKNQVSLTCLVKGFYPSDIAVEWESNGQPENNYKTTPPVLDSDGSFFLYSKLTVDKSRWQQGNVFSCSVMHEALHNHYTQESLSLSP
light: not shown
For B5, the relative binding activity in assay [1] was 34 relative (IL6R-BF648/IL6R-L = 100); in assay [2], 548 relative (IL6R-BF648/IL6R-L = 100); in assay [3], 178 relative (IL6R-BF648/IL6R-L = 100).

B6: IL6R-BP187/IL6R-L (antibody, human IgG1, kappa)
heavy: QVQLQESGPGLVKPSETLSLTCAVSGHSISHDHAWSWVRQPPGEGLEWIGFISYSGITNYNPSLQGRVTISRDNSKNTLYLQMNSLRAEDTAVYYCARSLARTTAMDYWGEGTLVTVSSASTKGPSVFPLAPSSKSTSGGTAALGCLVKDYFPEPVTVSWNSGALTSGVHTFPAVLQSSGLYSLSSVVTVPSSSLGTQTYICNVNHKPSNTKVDKKVEPKSCDKTHTCPPCPAPEYLGGDSVFLFPPKPKDTLMISRTPEVTCVVVDVSHEDGEVKFNWYVDGVEVHNAKTKPREEQYNSTYRVVSVLTVLHQDWLNGKEYKCKVSNAALPKPIEKTISKAKGQPREPQVYTLPPSRDELTKNQVSLTCLVKGFYPSDIAVEWESNGQPENNYKTTPPVLDSDGSFFLYSKLTVDKSRWQQGNVFSCSVMHEALHNHYTQESLSLSP
light: not shown
For the molecule B6, the relative binding activity in assay [1] is 68 relative (IL6R-BF648/IL6R-L = 100); in assay [2] it was 205 relative (IL6R-BF648/IL6R-L = 100); in assay [3], 157 relative (IL6R-BF648/IL6R-L = 100).

B7: IL6R-BP186/IL6R-L (antibody, human IgG1, kappa)
heavy: QVQLQESGPGLVKPSETLSLTCAVSGHSISHDHAWSWVRQPPGEGLEWIGFISYSGITNYNPSLQGRVTISRDNSKNTLYLQMNSLRAEDTAVYYCARSLARTTAMDYWGEGTLVTVSSASTKGPSVFPLAPSSKSTSGGTAALGCLVKDYFPEPVTVSWNSGALTSGVHTFPAVLQSSGLYSLSSVVTVPSSSLGTQTYICNVNHKPSNTKVDKKVEPKSCDKTHTCPPCPAPDYLGDDSVFLFPPKPKDTLMISRTPEVTCVVVDVSHEDGEVKFNWYVDGVEVHNAKTKPREEQDNSTYRVVSVLTVLHQDWLNGKEYKCKVSNAALPKPIEKTISKAKGQPREPQVYTLPPSRDELTKNQVSLTCLVKGFYPSDIAVEWESNGQPENNYKTTPPVLDSDGSFFLYSKLTVDKSRWQQGNVFSCSVMHEALHNHYTQESLSLSP
light: not shown
Consider B7, for which the relative binding activity is 43 relative (IL6R-BF648/IL6R-L = 100) in assay [1], 368 relative (IL6R-BF648/IL6R-L = 100) in assay [2] and 175 relative (IL6R-BF648/IL6R-L = 100) in assay [3].

B8: IL6R-BP189/IL6R-L (antibody, human IgG1, kappa)
heavy: QVQLQESGPGLVKPSETLSLTCAVSGHSISHDHAWSWVRQPPGEGLEWIGFISYSGITNYNPSLQGRVTISRDNSKNTLYLQMNSLRAEDTAVYYCARSLARTTAMDYWGEGTLVTVSSASTKGPSVFPLAPSSKSTSGGTAALGCLVKDYFPEPVTVSWNSGALTSGVHTFPAVLQSSGLYSLSSVVTVPSSSLGTQTYICNVNHKPSNTKVDKKVEPKSCDKTHTCPPCPAPELLGDDSVFLFPPKPKDTLMISRTPEVTCVVVDVSDEDGEVKFNWYVDGVEVHNAKTKPREEQYNSTYRVVSVLTVLHQDWLNGKEYKCKVSNAALPKPIEKTISKAKGQPREPQVYTLPPSRDELTKNQVSLTCLVKGFYPSDIAVEWESNGQPENNYKTTPPVLDSDGSFFLYSKLTVDKSRWQQGNVFSCSVMHEALHNHYTQESLSLSP
light: not shown
B8: the relative binding activity in assay [1] is 56 relative (IL6R-BF648/IL6R-L = 100); in assay [2] it was 183 relative (IL6R-BF648/IL6R-L = 100); in assay [3], 177 relative (IL6R-BF648/IL6R-L = 100).

B9: IL6R-BP180/IL6R-L (antibody, human IgG1, kappa)
heavy: QVQLQESGPGLVKPSETLSLTCAVSGHSISHDHAWSWVRQPPGEGLEWIGFISYSGITNYNPSLQGRVTISRDNSKNTLYLQMNSLRAEDTAVYYCARSLARTTAMDYWGEGTLVTVSSASTKGPSVFPLAPSSKSTSGGTAALGCLVKDYFPEPVTVSWNSGALTSGVHTFPAVLQSSGLYSLSSVVTVPSSSLGTQTYICNVNHKPSNTKVDKKVEPKSCDKTHTCPPCPAPELLGDDSVFLFPPKPKDTLMISRTPEVTCVVVDVSHEDGEVKFNWYVDGVEVHNAKTKPREEQYNSTYRVVSVLTVLHQDWLNGKEYKCKVSNKALPKPIEKTISKAKGQPREPQVYTLPPSRDELTKNQVSLTCLVKGFYPSDIAVEWESNGQPENNYKTTPPVLDSDGSFFLYSKLTVDKSRWQQGNVFSCSVMHEALHNHYTQESLSLSP
light: not shown
With B9, the relative binding activity is 29 relative (IL6R-BF648/IL6R-L = 100) in assay [1], 203 relative (IL6R-BF648/IL6R-L = 100) in assay [2] and 179 relative (IL6R-BF648/IL6R-L = 100) in assay [3].

B10: IL6R-BP179/IL6R-L (antibody, human IgG1, kappa)
heavy: QVQLQESGPGLVKPSETLSLTCAVSGHSISHDHAWSWVRQPPGEGLEWIGFISYSGITNYNPSLQGRVTISRDNSKNTLYLQMNSLRAEDTAVYYCARSLARTTAMDYWGEGTLVTVSSASTKGPSVFPLAPSSKSTSGGTAALGCLVKDYFPEPVTVSWNSGALTSGVHTFPAVLQSSGLYSLSSVVTVPSSSLGTQTYICNVNHKPSNTKVDKKVEPKSCDKTHTCPPCPAPELLGDDSVFLFPPKPKDTLMISRTPEVTCVVVDVSHEDGEVKFNWYVDGVEVHNAKTKPREEQYNSTYRVVSVLTVLHQDWLNGKEYKCKVSNAALPKPIEKTISKAKGQPREPQVYTLPPSRDELTKNQVSLTCLVKGFYPSDIAVEWESNGQPENNYKTTPPVLDSDGSFFLYSKLTVDKSRWQQGNVFSCSVMHEALHNHYTQESLSLSP
light: not shown
In the case of B10, the relative binding activity in assay [1] is 39 relative (IL6R-BF648/IL6R-L = 100); in assay [2], 226 relative (IL6R-BF648/IL6R-L = 100); in assay [3], 177 relative (IL6R-BF648/IL6R-L = 100).
